Results published in article doi:10.1101/2021.07.29.454247 (bioRxiv, 2021).

Molecular target: endogenous TRPM2 of mouse brain (mouse (endogenous in brain), UniProt Q91YD4 1-1506)
Experiment: co-IP

Chain of endogenous TRPM2 of mouse brain (Q91YD4 whole entry): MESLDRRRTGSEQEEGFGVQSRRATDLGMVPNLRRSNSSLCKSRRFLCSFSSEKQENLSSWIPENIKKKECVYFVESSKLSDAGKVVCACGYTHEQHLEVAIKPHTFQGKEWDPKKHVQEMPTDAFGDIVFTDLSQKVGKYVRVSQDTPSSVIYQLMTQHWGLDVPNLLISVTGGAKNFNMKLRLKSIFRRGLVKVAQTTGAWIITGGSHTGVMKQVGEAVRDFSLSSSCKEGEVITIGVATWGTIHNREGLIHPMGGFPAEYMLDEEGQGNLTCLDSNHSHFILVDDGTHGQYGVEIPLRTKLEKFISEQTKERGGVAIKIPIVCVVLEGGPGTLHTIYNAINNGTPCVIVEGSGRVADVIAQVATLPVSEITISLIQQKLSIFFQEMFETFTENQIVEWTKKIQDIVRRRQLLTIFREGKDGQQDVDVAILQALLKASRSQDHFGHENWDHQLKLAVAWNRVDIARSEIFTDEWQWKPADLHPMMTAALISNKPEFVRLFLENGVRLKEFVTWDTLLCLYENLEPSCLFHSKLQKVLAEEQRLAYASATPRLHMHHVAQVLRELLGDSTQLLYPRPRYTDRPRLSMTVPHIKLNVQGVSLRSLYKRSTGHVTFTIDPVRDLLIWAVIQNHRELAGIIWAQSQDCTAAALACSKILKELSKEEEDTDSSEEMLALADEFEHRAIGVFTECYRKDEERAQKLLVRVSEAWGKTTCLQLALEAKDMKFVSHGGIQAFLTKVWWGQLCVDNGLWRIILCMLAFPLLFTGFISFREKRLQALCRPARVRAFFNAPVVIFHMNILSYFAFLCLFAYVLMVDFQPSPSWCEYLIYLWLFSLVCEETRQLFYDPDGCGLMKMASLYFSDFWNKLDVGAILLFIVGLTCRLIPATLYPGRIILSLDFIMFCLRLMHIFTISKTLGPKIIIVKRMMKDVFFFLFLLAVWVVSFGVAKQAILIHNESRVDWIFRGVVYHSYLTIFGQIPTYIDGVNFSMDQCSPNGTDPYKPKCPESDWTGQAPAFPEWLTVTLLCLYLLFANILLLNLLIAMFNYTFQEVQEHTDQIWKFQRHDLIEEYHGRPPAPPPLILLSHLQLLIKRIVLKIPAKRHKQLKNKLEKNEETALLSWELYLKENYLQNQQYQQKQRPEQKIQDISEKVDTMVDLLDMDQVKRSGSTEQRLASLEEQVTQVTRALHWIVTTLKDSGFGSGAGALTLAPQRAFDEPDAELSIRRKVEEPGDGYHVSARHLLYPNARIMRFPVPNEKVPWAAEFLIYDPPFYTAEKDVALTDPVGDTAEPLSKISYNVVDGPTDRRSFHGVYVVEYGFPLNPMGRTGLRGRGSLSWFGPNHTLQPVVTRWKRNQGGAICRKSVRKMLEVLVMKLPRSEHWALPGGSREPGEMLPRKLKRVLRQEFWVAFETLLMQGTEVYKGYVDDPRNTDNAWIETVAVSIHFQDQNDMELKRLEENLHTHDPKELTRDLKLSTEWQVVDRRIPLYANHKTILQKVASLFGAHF

B1: endogenous PKCγ of mouse brain and neurons (enzyme)
chain: not shown
  fold of PKCγ pulled down by anti-TRPM2, MCAO against sham: ~1.5 fold
